# According to the supplement of paper PMC7877785:
# ± gives the uncertainty stated by the source.
# Experiment: self-splicing fitness, log relative to wild type (ln ratio); higher = more splicing; Tetrahymena group I intron in knt gene, E. coli kanamycin selection, DiMSum; sequences stand for … in CUCUCU…GGAGGGAAAAGUUAUCAGGCAUGCACCUGGUAGCUAGUCUUUAAACCAAUAGAUUGCAUCGGUUUAAAAGGCAAGACCGUCAAAUUGCGGGAAAGGGGUCAACAGCCGUUCAGUACCAAGUCUCAGGGGAAACUUUGAGAUGGCCUUGCAAAGGGUAUGGUAAUAAGCUGACGGACAUGGUCCUAACCACGCAGCCAAGUCCUAAGUCAACAGAUCUUCUGUUGAUAUGGAUGCAGUUCACAGACUAAAUGUCGGUCGGGGAAGAUGUAUUCUUCUCAUAAGAUAUAGUCGGACCUCUCCUUAAUGGGAGCUAGCGGAUGAAGUGAUGCAACACUGGAGCCGCUGGGAACUAAUUUGUAUGCGAAAGUAUAUUGAUUAGUUUUGGAGUACUCGUGGUCG
# Method in brief: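 DiMSum derived fitness as the error-weighted combination of fold changes across replicates, kanamycin versus no kanamycin, normalised to wild type. E. coli BL21(DE3) held the library, which randomised all eight P1ex-region intron nucleotides within the knt kanamycin-resistance gene on pET-22b(+). Six replicate transformations grew overnight at 37°C or 30°C on LB agar with or without 25 μg/mL kanamycin, also containing 100 μg/mL carbenicillin, 50 μM IPTG and 0.2% rhamnose, and pooled colonies were amplicon-sequenced on an Illumina HiSeq 2500.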
sequence,measurement,setting,value
UUCCAGCAAUAUUACGGGUC,self-splicing fitness (ln),30 °C,-2.91 ± 0.17
same,self-splicing fitness (ln),37 °C,-2.12 ± 0.25
UUCCAGCAAUAUUACGGGUU,self-splicing fitness (ln),30 °C,-2.05 ± 0.1
same,self-splicing fitness (ln),37 °C,-1.39 ± 0.13
UUCCAGCAAUAUUACGGUUG,self-splicing fitness (ln),30 °C,-2.43 ± 0.11
same,self-splicing fitness (ln),37 °C,-1.75 ± 0.16
UUCCAGCAAUAUUACGUACU,self-splicing fitness (ln),37 °C,-1.82 ± 0.21
UUCCAGCAAUAUUACGUCAU,self-splicing fitness (ln),30 °C,-3.65 ± 0.2
same,self-splicing fitness (ln),37 °C,-2.72 ± 0.2
UUCCAGCAAUAUUACGUGGG,self-splicing fitness (ln),30 °C,-3.68 ± 0.18
same,self-splicing fitness (ln),37 °C,-2.56 ± 0.16
UUCCAGCAAUAUUACGUUAC,self-splicing fitness (ln),30 °C,-3.45 ± 0.43
same,self-splicing fitness (ln),37 °C,-2.57 ± 0.25
UUCGAGCAAUAUUACGAACG,self-splicing fitness (ln),30 °C,-2.89 ± 0.29
same,self-splicing fitness (ln),37 °C,-0.783 ± 0.33
UUCGAGCAAUAUUACGACAG,self-splicing fitness (ln),30 °C,-2.81 ± 0.19
same,self-splicing fitness (ln),37 °C,-1.5 ± 0.13
UUCGAGCAAUAUUACGAUGC,self-splicing fitness (ln),30 °C,-1.44 ± 0.4
UUCGAGCAAUAUUACGCAAG,self-splicing fitness (ln),30 °C,-1.98 ± 0.4
same,self-splicing fitness (ln),37 °C,-1.66 ± 0.48
UUCGAGCAAUAUUACGCCGA,self-splicing fitness (ln),30 °C,-2.65 ± 0.22
same,self-splicing fitness (ln),37 °C,-2.66 ± 0.33
UUCGAGCAAUAUUACGCCUU,self-splicing fitness (ln),30 °C,-3.09 ± 0.26
same,self-splicing fitness (ln),37 °C,-1.64 ± 0.26
UUCGAGCAAUAUUACGCUAG,self-splicing fitness (ln),30 °C,-2.82 ± 0.26
same,self-splicing fitness (ln),37 °C,-2.05 ± 0.42
UUCGAGCAAUAUUACGGACA,self-splicing fitness (ln),30 °C,-2.7 ± 0.22
same,self-splicing fitness (ln),37 °C,-1.79 ± 0.17
UUCGAGCAAUAUUACGGAUA,self-splicing fitness (ln),30 °C,-2.76 ± 0.28
same,self-splicing fitness (ln),37 °C,-2.08 ± 0.25
UUCGAGCAAUAUUACGGUAA,self-splicing fitness (ln),30 °C,-1.85 ± 0.25
same,self-splicing fitness (ln),37 °C,-1.55 ± 0.19
UUCGAGCAAUAUUACGGUCU,self-splicing fitness (ln),30 °C,-5 ± 0.38
same,self-splicing fitness (ln),37 °C,-5.45 ± 0.36
UUCGAGCAAUAUUACGUACA,self-splicing fitness (ln),30 °C,-2.27 ± 0.22
same,self-splicing fitness (ln),37 °C,-1.81 ± 0.15
UUCGAGCAAUAUUACGUAGU,self-splicing fitness (ln),30 °C,-2.91 ± 0.29
same,self-splicing fitness (ln),37 °C,-0.98 ± 0.25
UUCGAGCAAUAUUACGUCAG,self-splicing fitness (ln),30 °C,-3.92 ± 0.43
same,self-splicing fitness (ln),37 °C,0.987 ± 0.26
UUCGAGCAAUAUUACGUCAU,self-splicing fitness (ln),30 °C,-2.56 ± 0.21
same,self-splicing fitness (ln),37 °C,-3.46 ± 0.46
UUCGAGCAAUAUUACGUGUA,self-splicing fitness (ln),30 °C,-2.65 ± 0.09
same,self-splicing fitness (ln),37 °C,-1.86 ± 0.095
UUCUAGCAAUAUUACGACCU,self-splicing fitness (ln),30 °C,-0.905 ± 0.42
same,self-splicing fitness (ln),37 °C,-2.63 ± 0.44
UUCUAGCAAUAUUACGACGG,self-splicing fitness (ln),30 °C,-1.31 ± 0.1
same,self-splicing fitness (ln),37 °C,-1.77 ± 0.15
UUCUAGCAAUAUUACGACUU,self-splicing fitness (ln),30 °C,-1.77 ± 0.24
same,self-splicing fitness (ln),37 °C,-1.59 ± 0.19
UUCUAGCAAUAUUACGAUGU,self-splicing fitness (ln),30 °C,-3.53 ± 0.42
same,self-splicing fitness (ln),37 °C,-1.66 ± 0.2
UUCUAGCAAUAUUACGCAUC,self-splicing fitness (ln),30 °C,-2.33 ± 0.42
same,self-splicing fitness (ln),37 °C,-0.769 ± 0.29
UUCUAGCAAUAUUACGCAUG,self-splicing fitness (ln),30 °C,-3.42 ± 0.16
same,self-splicing fitness (ln),37 °C,-2.01 ± 0.18
UUCUAGCAAUAUUACGCCGU,self-splicing fitness (ln),30 °C,-2.06 ± 0.46
same,self-splicing fitness (ln),37 °C,-0.835 ± 0.34
UUCUAGCAAUAUUACGCCUA,self-splicing fitness (ln),30 °C,-1.94 ± 0.29
same,self-splicing fitness (ln),37 °C,-0.0729 ± 0.19
UUCUAGCAAUAUUACGCGCA,self-splicing fitness (ln),30 °C,-0.451 ± 0.088
same,self-splicing fitness (ln),37 °C,-0.191 ± 0.097
UUCUAGCAAUAUUACGCGUG,self-splicing fitness (ln),30 °C,-2.22 ± 0.12
same,self-splicing fitness (ln),37 °C,-0.708 ± 0.1
UUCUAGCAAUAUUACGCUAG,self-splicing fitness (ln),30 °C,-3.41 ± 0.23
same,self-splicing fitness (ln),37 °C,-2.42 ± 0.41
UUCUAGCAAUAUUACGGCAG,self-splicing fitness (ln),30 °C,0.185 ± 0.42
same,self-splicing fitness (ln),37 °C,-0.821 ± 0.39
UUCUAGCAAUAUUACGGCGG,self-splicing fitness (ln),30 °C,-2.93 ± 0.16
same,self-splicing fitness (ln),37 °C,-1.28 ± 0.13
UUCUAGCAAUAUUACGUACC,self-splicing fitness (ln),37 °C,-0.136 ± 0.48
UUCUAGCAAUAUUACGUAGG,self-splicing fitness (ln),30 °C,-2.25 ± 0.24
same,self-splicing fitness (ln),37 °C,-0.645 ± 0.31
UUCUAGCAAUAUUACGUCAG,self-splicing fitness (ln),30 °C,-3.16 ± 0.37
same,self-splicing fitness (ln),37 °C,-1.75 ± 0.26
UUCUAGCAAUAUUACGUCCU,self-splicing fitness (ln),30 °C,-1.87 ± 0.38
same,self-splicing fitness (ln),37 °C,-2.91 ± 0.36
UUCUAGCAAUAUUACGUCUU,self-splicing fitness (ln),30 °C,-3.03 ± 0.29
same,self-splicing fitness (ln),37 °C,-2.26 ± 0.23
UUGAAGCAAUAUUACGACGC,self-splicing fitness (ln),30 °C,-0.722 ± 0.11
same,self-splicing fitness (ln),37 °C,0.156 ± 0.14
UUGAAGCAAUAUUACGACUA,self-splicing fitness (ln),30 °C,0.321 ± 0.098
same,self-splicing fitness (ln),37 °C,0.141 ± 0.11
UUGAAGCAAUAUUACGAUAC,self-splicing fitness (ln),30 °C,-2.62 ± 0.2
same,self-splicing fitness (ln),37 °C,-2.62 ± 0.26
UUGAAGCAAUAUUACGAUAG,self-splicing fitness (ln),30 °C,0.155 ± 0.071
same,self-splicing fitness (ln),37 °C,0.398 ± 0.095
UUGAAGCAAUAUUACGCCAA,self-splicing fitness (ln),30 °C,-0.371 ± 0.094
same,self-splicing fitness (ln),37 °C,-0.324 ± 0.11
UUGAAGCAAUAUUACGCCCU,self-splicing fitness (ln),30 °C,-0.0294 ± 0.13
same,self-splicing fitness (ln),37 °C,0.698 ± 0.16
UUGAAGCAAUAUUACGCGAA,self-splicing fitness (ln),30 °C,-0.789 ± 0.08
same,self-splicing fitness (ln),37 °C,-0.585 ± 0.093
UUGAAGCAAUAUUACGCGCA,self-splicing fitness (ln),30 °C,0.548 ± 0.12
same,self-splicing fitness (ln),37 °C,0.381 ± 0.12
UUGAAGCAAUAUUACGCGGG,self-splicing fitness (ln),30 °C,-1.95 ± 0.1
same,self-splicing fitness (ln),37 °C,-0.668 ± 0.12
UUGAAGCAAUAUUACGCGUU,self-splicing fitness (ln),30 °C,-3.35 ± 0.15
same,self-splicing fitness (ln),37 °C,-0.906 ± 0.12
UUGAAGCAAUAUUACGCUAG,self-splicing fitness (ln),30 °C,-0.524 ± 0.19
same,self-splicing fitness (ln),37 °C,-0.328 ± 0.17
UUGAAGCAAUAUUACGGCGC,self-splicing fitness (ln),30 °C,-2.04 ± 0.17
same,self-splicing fitness (ln),37 °C,-0.68 ± 0.19
UUGAAGCAAUAUUACGGCUC,self-splicing fitness (ln),30 °C,-3.8 ± 0.25
same,self-splicing fitness (ln),37 °C,-1.42 ± 0.19
UUGAAGCAAUAUUACGGGUC,self-splicing fitness (ln),30 °C,-3.77 ± 0.25
same,self-splicing fitness (ln),37 °C,-1.71 ± 0.25
UUGAAGCAAUAUUACGUAAG,self-splicing fitness (ln),30 °C,-0.735 ± 0.083
same,self-splicing fitness (ln),37 °C,0.223 ± 0.12
UUGAAGCAAUAUUACGUACG,self-splicing fitness (ln),30 °C,-0.166 ± 0.053
same,self-splicing fitness (ln),37 °C,0.427 ± 0.074
UUGAAGCAAUAUUACGUAUU,self-splicing fitness (ln),30 °C,-2.69 ± 0.12
same,self-splicing fitness (ln),37 °C,-0.933 ± 0.12
UUGAAGCAAUAUUACGUCAG,self-splicing fitness (ln),30 °C,0.252 ± 0.076
same,self-splicing fitness (ln),37 °C,0.934 ± 0.11
UUGAAGCAAUAUUACGUUCG,self-splicing fitness (ln),30 °C,-0.397 ± 0.065
same,self-splicing fitness (ln),37 °C,0.0406 ± 0.088
UUGAAGCAAUAUUACGUUUG,self-splicing fitness (ln),30 °C,-1.6 ± 0.12
same,self-splicing fitness (ln),37 °C,-0.811 ± 0.19
UUGCAGCAAUAUUACGAACC,self-splicing fitness (ln),30 °C,-1.76 ± 0.45
UUGCAGCAAUAUUACGACCC,self-splicing fitness (ln),37 °C,-0.535 ± 0.4
UUGCAGCAAUAUUACGACUC,self-splicing fitness (ln),30 °C,-1.2 ± 0.11
same,self-splicing fitness (ln),37 °C,-0.0756 ± 0.12
UUGCAGCAAUAUUACGAGCU,self-splicing fitness (ln),30 °C,-2.6 ± 0.1
same,self-splicing fitness (ln),37 °C,-1.37 ± 0.11
UUGCAGCAAUAUUACGAGGC,self-splicing fitness (ln),30 °C,-3.55 ± 0.23
same,self-splicing fitness (ln),37 °C,-2.07 ± 0.22
UUGCAGCAAUAUUACGAUAG,self-splicing fitness (ln),30 °C,-0.692 ± 0.079
same,self-splicing fitness (ln),37 °C,0.225 ± 0.11
UUGCAGCAAUAUUACGAUCA,self-splicing fitness (ln),30 °C,-1.37 ± 0.12
same,self-splicing fitness (ln),37 °C,-0.0311 ± 0.11
UUGCAGCAAUAUUACGAUGC,self-splicing fitness (ln),30 °C,-3.16 ± 0.46
same,self-splicing fitness (ln),37 °C,-1.54 ± 0.45
UUGCAGCAAUAUUACGCAAG,self-splicing fitness (ln),30 °C,-1.92 ± 0.16
same,self-splicing fitness (ln),37 °C,-2.89 ± 0.36
UUGCAGCAAUAUUACGCAUC,self-splicing fitness (ln),30 °C,-3.11 ± 0.22
same,self-splicing fitness (ln),37 °C,-3.18 ± 0.33
UUGCAGCAAUAUUACGCCCA,self-splicing fitness (ln),30 °C,-1.28 ± 0.21
same,self-splicing fitness (ln),37 °C,-0.155 ± 0.25
UUGCAGCAAUAUUACGCCUU,self-splicing fitness (ln),30 °C,-0.0132 ± 0.081
same,self-splicing fitness (ln),37 °C,0.15 ± 0.11
UUGCAGCAAUAUUACGCGAU,self-splicing fitness (ln),30 °C,-2.02 ± 0.29
same,self-splicing fitness (ln),37 °C,-2.6 ± 0.36
UUGCAGCAAUAUUACGCGUA,self-splicing fitness (ln),30 °C,-0.889 ± 0.13
same,self-splicing fitness (ln),37 °C,-0.457 ± 0.11
UUGCAGCAAUAUUACGCUAU,self-splicing fitness (ln),30 °C,-2.99 ± 0.25
same,self-splicing fitness (ln),37 °C,-1.16 ± 0.17
UUGCAGCAAUAUUACGCUCU,self-splicing fitness (ln),30 °C,-1.01 ± 0.12
same,self-splicing fitness (ln),37 °C,-0.306 ± 0.13
